Test results from patent US20130272958A1 (NATIONAL RESEARCH COUNCIL OF CANADA, published 2013).
Each block holds one molecule with its values, some of them ahead of it.

What was measured:
[1] = biological target: recombinant CEACAM6 N-terminal domain (expressed in E. coli) (Homo sapiens (Human)) (UniProt P40199); test: SPR (Biacore 3000), 9A6 immobilised, CEACAM6 recombinant protein injected at 0.1-200 nM
[2] = biological target: T1, recombinant CEACAM6 N-terminal domain (expressed in E. coli) (Homo sapiens (Human), UniProt P40199 35-142, limits assumed); test: SPR (Biacore 3000), CEACAM6 immobilised, 2A3 injected at 1-60 nM, 1:1 Langmuir fit
T1 construct: also called CEACAM6 N-domain; recombinant CEACAM6 protein (N-domain)
T1 sequence: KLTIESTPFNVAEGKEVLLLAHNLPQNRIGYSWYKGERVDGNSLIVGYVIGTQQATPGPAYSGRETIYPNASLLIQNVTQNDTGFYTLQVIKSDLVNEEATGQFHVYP
Description: Immobilizations were performed with an amine-coupling kit (GE Healthcare) and carried out at 50 μg/ml CEACAM6 in 10 mM Acetate, pH 4 (GE Healthcare) and 50 μg/ml of Ovalbumin in 10 mM Acetate, pH 4.5. 120 μL of the sdAb at concentration of 1 nM to 60 nM were injected over the surfaces at a flow rate of 40 μl/min. Analyses were carried out at room temperature in HBS-EP, 10 mM HEPES pH 7.4, 150 mM NaCl, 3 mM EDTA and 0.005% surfactant P20 (GE Healthcare). Regeneration was performed with running buffer (HBS-EP). Data were analyzed with BIAevaluation software 4.1.

[3] = biological target: T2, CEACAM6 peptide NRIGYSWYKGERVDG; test: peptide array membrane, anti-llama detection
T2 construct: Spot on a JPT peptide array (45 peptides, 15 residues long, 10 overlapping)
T2 peptide: NRIGYSWYKGERVDG

[4] = biological target: T3, CEACAM6 peptide HNLPQNRIGYSWYKG; test: peptide array membrane, anti-llama detection
T3 construct: Spot on a JPT peptide array (45 peptides, 15 residues long, 10 overlapping)
T3 peptide: HNLPQNRIGYSWYKG

[5] = biological target: T4, native CEACAM6 expressed by human tumor cells (BxPC3, LS174T, A549) (human, UniProt P40199 35-320); test: cell-based or functional assay
T4 sequence: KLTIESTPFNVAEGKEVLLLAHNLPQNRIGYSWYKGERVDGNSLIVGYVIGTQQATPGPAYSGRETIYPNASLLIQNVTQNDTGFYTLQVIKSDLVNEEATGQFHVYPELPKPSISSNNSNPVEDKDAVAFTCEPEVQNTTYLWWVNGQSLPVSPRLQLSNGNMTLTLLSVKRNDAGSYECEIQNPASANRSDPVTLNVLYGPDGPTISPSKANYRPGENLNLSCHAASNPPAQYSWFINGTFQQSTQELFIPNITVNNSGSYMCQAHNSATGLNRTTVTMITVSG

[6] = biological target: T1, recombinant CEACAM6 N-terminal domain …; test: SPR (Biacore 3000), 2A3-Fc immobilised, CEACAM6 recombinant protein injected at 0.1-200 nM
Description: One hundred twenty microliters of CEACAM6 recombinant protein at concentration of 0.1 nM to 200 nM was injected over the surfaces at a flow rate of 40 μl min-1. Analyses were carried out at room temperature in HBS-EP comprising 10 mM HEPES pH 7.4, 150 mM NaCl, 3 mM EDTA and 0.005% surfactant P20 (GE Healthcare). Regeneration was performed with HBS-EP used as running buffer. The data were analyzed by using BIAevaluation software 4.1.

Kd [1]: 8 nM
Molecule: anti-CEACAM6 mouse monoclonal antibody 9A6 (Santa Cruz Biotechnology)

Kd [2]: 4.7 nM
koff [2]: 0.0053 s⁻¹
kon [2]: 1.1e+06 M⁻¹ s⁻¹
binding result [3]: binds
binding result [4]: binds
BxPC3 cell proliferation (MTT assay), IC50 [5]: 6500 nM
B1: sdAb 2A3 (engineered, with c-myc and His tags) (VHH)
VHH: QVKLEESGGGLVQAGGSLRLSCRTSGRTNSVYTMGWFRQAPGKEREFVAQIMWGAGTNTHYADSVKGRFTISRDSAESTVYLQMNSLKPEDTAVYYCAANRGIPIAGRQYDYWGQGTQVTVSS
modifications: FITC-labelled in the staining and flow cytometry assays
notes: Llama VHH expressed in the E. coli periplasm and purified by IMAC; monomer by size exclusion; also called 2A3 sdAb; FITC-2A3

Kd [6]: 13 nM
BxPC3 cell proliferation (MTT assay), IC50 [5]: 8000 nM
B2: 2A3-Fc (2A3 sdAb fused to mouse Fc2b fragment) (Fc fusion)
chain: B1 VHH
modifications: FITC, Alexa Fluor 594 or 64Cu-DOTA label in some assays
notes: Expressed in 293-6E cells and purified on Protein G; about 80 kDa, bivalent; also called 2A3-mFc; 2A3mFc; not shown: mouse Fc2b fragment (Fc of mouse IgG2b) from vector pTT5
